From the supplement of paper PMC9876800

Test system: peptide library, one residue held at a place counted from the S/T acceptor
Experiment: relative phosphorylation of the sub-library (ratio to the mean residue at this position); higher = residue favoured
Conditions: human
How it was run: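 Human or orthologue kinase constructs, purified and recombinant, were incubated under kinase-specific conditions in 384-well plates with biotinylated degenerate peptide sub-libraries. Each sub-library fixed one residue at one position around a central Ser/Thr. Incubations lasted 90 min with peptides at 50 μM and 50 μM ATP spiked with γ-32P-ATP, after which spots on streptavidin membranes were phosphorimaged and quantified by densitometry. Relative sub-library phosphorylation is a ratio to the mean residue at that position.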

ULK2, construct: aa1-478, sequence (Q8IYT8 1-478, looked up): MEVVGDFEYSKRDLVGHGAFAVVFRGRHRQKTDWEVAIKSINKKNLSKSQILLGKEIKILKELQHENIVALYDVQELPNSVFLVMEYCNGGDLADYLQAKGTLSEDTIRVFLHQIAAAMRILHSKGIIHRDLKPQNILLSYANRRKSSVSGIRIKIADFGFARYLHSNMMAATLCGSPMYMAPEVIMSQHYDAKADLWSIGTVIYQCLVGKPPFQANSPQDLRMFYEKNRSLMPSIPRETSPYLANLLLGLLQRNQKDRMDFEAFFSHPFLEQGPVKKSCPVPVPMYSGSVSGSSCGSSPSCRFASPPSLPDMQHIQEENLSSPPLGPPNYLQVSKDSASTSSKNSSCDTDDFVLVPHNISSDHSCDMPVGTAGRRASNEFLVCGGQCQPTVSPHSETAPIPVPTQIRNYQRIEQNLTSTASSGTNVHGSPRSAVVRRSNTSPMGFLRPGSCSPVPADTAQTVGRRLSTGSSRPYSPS
MARK1, construct: Full length, sequence (Q9P0L2 whole entry, looked up): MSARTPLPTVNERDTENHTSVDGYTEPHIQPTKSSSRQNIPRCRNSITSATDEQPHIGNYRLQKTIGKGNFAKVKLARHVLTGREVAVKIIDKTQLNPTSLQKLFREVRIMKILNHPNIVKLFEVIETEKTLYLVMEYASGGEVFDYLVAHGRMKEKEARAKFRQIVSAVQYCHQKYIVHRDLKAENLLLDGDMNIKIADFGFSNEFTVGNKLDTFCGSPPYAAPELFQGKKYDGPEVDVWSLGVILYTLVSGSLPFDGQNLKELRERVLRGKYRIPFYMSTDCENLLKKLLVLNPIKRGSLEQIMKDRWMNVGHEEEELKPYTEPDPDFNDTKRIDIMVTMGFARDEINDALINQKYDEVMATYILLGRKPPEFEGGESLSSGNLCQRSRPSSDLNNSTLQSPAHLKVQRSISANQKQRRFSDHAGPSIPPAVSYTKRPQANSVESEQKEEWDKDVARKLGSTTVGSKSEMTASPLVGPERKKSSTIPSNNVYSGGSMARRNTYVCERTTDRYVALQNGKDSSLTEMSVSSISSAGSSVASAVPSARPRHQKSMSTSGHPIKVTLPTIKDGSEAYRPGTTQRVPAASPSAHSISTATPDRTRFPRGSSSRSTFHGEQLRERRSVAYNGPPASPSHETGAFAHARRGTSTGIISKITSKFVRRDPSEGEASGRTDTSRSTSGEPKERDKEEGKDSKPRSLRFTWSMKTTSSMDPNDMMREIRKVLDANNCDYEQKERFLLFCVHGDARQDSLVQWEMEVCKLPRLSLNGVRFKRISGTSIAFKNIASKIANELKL

CAMK4, construct: Full length (from UniProt Q16566)
relative phosphorylation
Conditions | at +1 | at +2 | at +3 | at +4 | at -1 | at -2 | at -3 | at -4 | at -5
A fixed | 0.518 | 0.587 | 0.723 | 0.805 | 0.66 | 0.761 | 0.61 | 0.815 | 0.598
D fixed | 0.574 | 0.588 | 0.925 | 0.978 | 0.92 | 0.327 | 0.27 | 0.479 | 0.347
E fixed | 0.727 | 0.483 | 0.846 | 0.999 | 0.722 | 0.386 | 0.404 | 0.705 | 0.364
F fixed | 3.32 | 0.95 | 1.12 | 1 | 1.02 | 0.667 | 0.559 | 1.01 | 1.75
G fixed | 0.745 | 0.525 | 0.905 | 0.847 | 0.692 | 0.573 | 0.566 | 0.861 | 0.631
H fixed | 0.86 | 1.99 | 1.19 | 1.08 | 1.18 | 1.3 | 1.32 | 1.17 | 0.781
I fixed | 0.95 | 1.24 | 0.874 | 0.837 | 0.711 | 0.484 | 0.449 | 0.865 | 1.22
K fixed | 0.738 | 0.848 | 0.896 | 0.942 | 1.35 | 2.46 | 2.9 | 1.67 | 1.02
L fixed | 0.822 | 1.25 | 1.04 | 1.06 | 1.05 | 0.547 | 0.432 | 1.01 | 1.85
M fixed | 1.23 | 1.15 | 1 | 0.978 | 0.99 | 0.783 | 0.671 | 1.17 | 1.3
N fixed | 0.977 | 1.08 | 1.21 | 1.14 | 1.36 | 1.06 | 0.723 | 0.962 | 0.651
P fixed | 0.167 | 0.652 | 0.919 | 1.24 | 1.09 | 0.38 | 0.706 | 0.642 | 0.827
Q fixed | 1.12 | 0.862 | 0.904 | 1.17 | 1.21 | 1.34 | 0.854 | 0.951 | 0.755
R fixed | 0.929 | 1.24 | 0.977 | 1.04 | 1.27 | 3.93 | 4.59 | 1.73 | 1.48
V fixed | 0.815 | 1.08 | 0.8 | 0.739 | 0.744 | 0.501 | 0.408 | 0.938 | 0.98
W fixed | 1.25 | 1.16 | 1.39 | 1.12 | 0.93 | 0.744 | 0.841 | 0.949 | 1.1
Y fixed | 1.26 | 1.33 | 1.27 | 1.03 | 1.1 | 0.756 | 0.695 | 1.09 | 1.35
pThr fixed | 0.934 | 0.905 | 0.892 | 1.02 | 0.56 | 0.621 | 0.672 | 0.718 | 0.63
pTyr fixed | 0.811 | 0.793 | 0.936 | 0.824 | 1.09 | 0.424 | 0.482 | 0.653 | 0.661

MARK1, construct: Full length (from UniProt Q9P0L2)
relative phosphorylation
Conditions | at +1 | at +2 | at +3 | at +4 | at -1 | at -2 | at -3 | at -4 | at -5
A fixed | 0.647 | 0.684 | 0.599 | 0.352 | 1.02 | 1.84 | 0.723 | 0.974 | 0.972
D fixed | 0.508 | 0.722 | 3.18 | 0.56 | 0.625 | 0.335 | 0.358 | 0.782 | 0.715
E fixed | 0.778 | 1.09 | 0.947 | 0.373 | 0.616 | 0.261 | 0.408 | 0.696 | 0.695
F fixed | 0.81 | 0.764 | 0.898 | 0.713 | 0.635 | 1.48 | 0.885 | 1.05 | 1.18
G fixed | 0.497 | 0.392 | 0.379 | 0.421 | 2.38 | 0.96 | 0.556 | 1.07 | 0.906
H fixed | 0.787 | 1.08 | 1.44 | 0.589 | 0.783 | 1.35 | 1.36 | 1.25 | 0.858
I fixed | 1.2 | 0.885 | 0.565 | 2.73 | 0.557 | 0.503 | 0.555 | 0.654 | 0.974
K fixed | 0.837 | 0.57 | 0.587 | 0.483 | 1.72 | 0.994 | 2.18 | 1.38 | 1.26
L fixed | 1.42 | 1.13 | 0.877 | 4.86 | 0.751 | 0.491 | 0.642 | 0.747 | 1.51
M fixed | 2.28 | 1.12 | 0.774 | 1.4 | 0.963 | 0.76 | 0.883 | 0.967 | 1.27
N fixed | 0.949 | 0.968 | 2.63 | 0.679 | 1.1 | 0.576 | 0.571 | 0.865 | 0.739
P fixed | 0.28 | 0.59 | 0.171 | 0.382 | 1.13 | 0.428 | 0.716 | 0.856 | 0.775
Q fixed | 1.76 | 1.04 | 0.911 | 0.615 | 1.16 | 0.569 | 0.7 | 0.805 | 0.862
R fixed | 1.14 | 0.69 | 0.476 | 0.384 | 1.41 | 1.08 | 3.66 | 1.75 | 1.48
V fixed | 1.36 | 0.879 | 0.487 | 1.28 | 0.75 | 0.676 | 0.525 | 0.798 | 0.903
W fixed | 0.847 | 3.44 | 1.03 | 0.626 | 0.636 | 3.1 | 1.39 | 1.26 | 1.02
Y fixed | 0.903 | 0.958 | 1.05 | 0.555 | 0.766 | 1.6 | 0.884 | 1.09 | 0.877
pThr fixed | 1.58 | 1.08 | 0.457 | 0.348 | 0.378 | 0.43 | 0.445 | 0.692 | 0.614
pTyr fixed | 0.712 | 0.641 | 0.828 | 0.368 | 0.881 | 0.508 | 0.543 | 0.659 | 0.758

ULK2, construct: aa1-478 (from UniProt Q8IYT8)
relative phosphorylation
Conditions | at +1 | at +2 | at +3 | at +4 | at -1 | at -2 | at -3 | at -4 | at -5
A fixed | 0.728 | 0.707 | 0.906 | 0.969 | 1.08 | 1.11 | 0.982 | 1.31 | 1.38
D fixed | 0.31 | 0.349 | 0.794 | 0.811 | 1.04 | 1.1 | 0.736 | 1.16 | 1.29
E fixed | 0.365 | 0.348 | 0.775 | 0.701 | 0.927 | 1.05 | 0.599 | 0.953 | 1.08
F fixed | 1.4 | 0.962 | 0.824 | 0.652 | 0.63 | 1.14 | 0.873 | 0.616 | 0.704
G fixed | 0.631 | 0.582 | 1.39 | 1.28 | 1.09 | 1.12 | 1.24 | 1.47 | 1.23
H fixed | 0.927 | 1.62 | 1.19 | 1.17 | 0.923 | 1.31 | 0.774 | 1.05 | 1.11
I fixed | 1.49 | 1.03 | 0.872 | 0.796 | 0.637 | 0.728 | 0.739 | 0.685 | 0.679
K fixed | 0.863 | 1.09 | 1.51 | 1.43 | 1.53 | 0.703 | 0.63 | 0.968 | 1.21
L fixed | 1.07 | 0.851 | 0.858 | 0.831 | 0.788 | 0.843 | 1.54 | 0.738 | 0.748
M fixed | 1.78 | 1.08 | 0.867 | 0.938 | 1.11 | 1.11 | 2.88 | 0.946 | 0.705
N fixed | 0.665 | 0.848 | 0.895 | 1.02 | 1.12 | 1.18 | 1.12 | 1.24 | 1.16
P fixed | 0.167 | 0.441 | 0.832 | 1.28 | 0.567 | 0.492 | 0.774 | 1.19 | 1.01
Q fixed | 1.37 | 0.846 | 0.932 | 1.01 | 1.4 | 0.965 | 0.955 | 0.91 | 0.995
R fixed | 1.05 | 1.59 | 1.37 | 1.28 | 1.48 | 0.655 | 0.693 | 0.965 | 1.1
V fixed | 1.53 | 1.02 | 0.945 | 0.863 | 1.02 | 0.774 | 0.808 | 0.748 | 0.815
W fixed | 1.14 | 1.6 | 1.02 | 1.11 | 0.814 | 1.6 | 1.02 | 1.3 | 1.02
Y fixed | 1.51 | 2.04 | 1.02 | 0.854 | 0.85 | 1.12 | 0.652 | 0.761 | 0.754
pThr fixed | 0.659 | 0.378 | 0.594 | 0.749 | 0.557 | 0.6 | 0.707 | 0.833 | 0.782
pTyr fixed | 0.882 | 0.714 | 0.817 | 0.647 | 0.923 | 1.04 | 0.619 | 0.547 | 0.707
